According to patent US20250382384A1:

Key:
[1] = biological target: MUC1 on normal activated human T cells (human) (UniProt P15941); assay: FACS on PHA-L-activated human PBMC, live αβTCR+ cells, donor 3011029
[2] = biological target: MUC1 on normal activated human T cells (human) (UniProt P15941); assay: FACS on PHA-L-activated human PBMC, live αβTCR+ cells, donor 3009223
[3] = biological target: MUC1 on normal activated human T cells (human) (UniProt P15941); assay: FACS on PHA-L-activated human PBMC, live αβTCR+ cells, donor 191180405C
[4] = biological target: MUC1 on normal activated human T cells (human) (UniProt P15941); assay: FACS on PHA-L-activated human PBMC, live αβTCR+ cells, donor 190980805C
[5] = biological target: MUC1 on normal activated human T cells (human) (UniProt P15941); assay: FACS on PHA-L-activated human PBMC, live αβTCR+ cells; gating scheme, donor not given

Sequence of MUC1 on normal activated human T cells (human) (P15941 24-1255): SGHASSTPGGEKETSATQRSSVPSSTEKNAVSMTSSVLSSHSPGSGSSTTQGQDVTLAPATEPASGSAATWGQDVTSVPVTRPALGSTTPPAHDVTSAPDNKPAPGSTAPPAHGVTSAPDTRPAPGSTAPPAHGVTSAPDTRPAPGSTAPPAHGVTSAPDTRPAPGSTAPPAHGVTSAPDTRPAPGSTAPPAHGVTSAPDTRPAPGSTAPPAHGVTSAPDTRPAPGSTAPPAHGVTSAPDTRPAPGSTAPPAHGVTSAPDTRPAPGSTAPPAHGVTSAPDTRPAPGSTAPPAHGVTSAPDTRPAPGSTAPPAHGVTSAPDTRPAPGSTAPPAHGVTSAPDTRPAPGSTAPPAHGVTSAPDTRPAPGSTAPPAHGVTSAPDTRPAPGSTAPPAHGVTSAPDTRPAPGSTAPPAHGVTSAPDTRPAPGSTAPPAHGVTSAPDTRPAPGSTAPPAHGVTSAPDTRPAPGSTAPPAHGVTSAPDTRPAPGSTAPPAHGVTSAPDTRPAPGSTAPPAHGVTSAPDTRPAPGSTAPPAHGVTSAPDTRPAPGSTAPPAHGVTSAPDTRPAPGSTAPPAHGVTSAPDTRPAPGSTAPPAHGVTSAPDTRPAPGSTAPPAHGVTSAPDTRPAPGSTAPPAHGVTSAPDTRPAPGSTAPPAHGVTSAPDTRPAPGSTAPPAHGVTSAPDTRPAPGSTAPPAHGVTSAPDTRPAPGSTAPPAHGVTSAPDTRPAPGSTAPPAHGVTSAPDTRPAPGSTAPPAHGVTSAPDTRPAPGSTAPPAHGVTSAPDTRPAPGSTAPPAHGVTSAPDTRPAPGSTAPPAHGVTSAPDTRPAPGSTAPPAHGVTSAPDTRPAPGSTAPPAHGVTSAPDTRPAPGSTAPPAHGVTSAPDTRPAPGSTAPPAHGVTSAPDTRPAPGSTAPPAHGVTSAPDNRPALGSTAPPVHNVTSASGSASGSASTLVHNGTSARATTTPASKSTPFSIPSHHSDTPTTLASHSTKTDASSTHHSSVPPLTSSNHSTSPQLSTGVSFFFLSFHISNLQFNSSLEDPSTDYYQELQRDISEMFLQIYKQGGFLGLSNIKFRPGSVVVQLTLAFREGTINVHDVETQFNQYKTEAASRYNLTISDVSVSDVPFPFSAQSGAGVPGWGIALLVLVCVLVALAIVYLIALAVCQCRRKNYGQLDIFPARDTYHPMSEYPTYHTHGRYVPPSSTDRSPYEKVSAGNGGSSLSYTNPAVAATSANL

| Substance | percent of αβTCR+ T cells in the dashed MUC1+ box (antibody-bound T cells) [1] [%] | percent of αβTCR+ T cells in the dashed MUC1+ box (antibody-bound T cells) [2] [%] | percent of αβTCR+ T cells in the dashed MUC1+ box (antibody-bound T cells) [3] [%] | percent of αβTCR+ T cells in the dashed MUC1+ box (antibody-bound T cells) [4] [%] | percent of αβTCR+ T cells in the dashed MUC1+ box (antibody-bound T cells) [5] [%] |
| --- | --- | --- | --- | --- | --- |
| Isotype (antibody) | 0.36 | 0.05 | 0.29 | 0.15 | 0.29 |
| HMFG1 (antibody) | 23.2 | 10 | 28.1 | 28.2 | 28.1 |
